These results are taken from US20250042944A1 (NATIONAL MARINE BIODIVERSITY INSTITUTE OF KOREA, published 2025).

Bridges are numbered along the chain shown (N, C = ends). Where no end group is shown, it is not given here.

What all share (test): cell-based or functional assay
For assay [1], the target named is T1, recombinant human vasopressin V1B receptor (human, UniProt P47901 1-424).
T1 sequence (looked up): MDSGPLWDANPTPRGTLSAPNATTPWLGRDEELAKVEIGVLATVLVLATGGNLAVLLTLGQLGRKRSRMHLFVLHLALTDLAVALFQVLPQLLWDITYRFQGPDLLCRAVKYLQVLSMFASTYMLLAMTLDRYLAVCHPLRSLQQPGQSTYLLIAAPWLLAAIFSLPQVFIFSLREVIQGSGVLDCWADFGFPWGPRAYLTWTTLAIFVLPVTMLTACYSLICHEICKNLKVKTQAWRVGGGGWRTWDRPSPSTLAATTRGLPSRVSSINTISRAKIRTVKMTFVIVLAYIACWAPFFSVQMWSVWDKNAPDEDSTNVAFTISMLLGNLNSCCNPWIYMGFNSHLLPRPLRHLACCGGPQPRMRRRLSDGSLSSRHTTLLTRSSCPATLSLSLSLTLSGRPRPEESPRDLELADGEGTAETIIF

In assay [2] the target is T2, recombinant human oxytocin receptor (human, UniProt P30559 1-389).
T2 sequence (looked up): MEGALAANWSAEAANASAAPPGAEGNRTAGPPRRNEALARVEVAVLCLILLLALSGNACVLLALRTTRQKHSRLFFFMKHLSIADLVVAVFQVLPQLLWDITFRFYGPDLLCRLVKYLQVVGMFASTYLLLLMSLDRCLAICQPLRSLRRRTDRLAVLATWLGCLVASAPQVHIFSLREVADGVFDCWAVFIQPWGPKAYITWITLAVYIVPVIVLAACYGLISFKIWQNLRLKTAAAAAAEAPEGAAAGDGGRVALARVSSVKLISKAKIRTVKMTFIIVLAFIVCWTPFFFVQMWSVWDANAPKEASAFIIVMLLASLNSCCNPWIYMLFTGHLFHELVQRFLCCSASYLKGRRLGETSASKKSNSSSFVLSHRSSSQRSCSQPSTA

The target in assay [3] is recombinant human vasopressin V2 receptor (human, UniProt P30518 1-371).

B1: Pro-sepiatocin (peptide)
peptide: CFFRNCPPG-NH2
modifications: disulfide 1-6; N-terminus assumed
SMILES: N=C(N)NCCC[C@@H]1NC(=O)[C@H](Cc2ccccc2)NC(=O)[C@H](Cc2ccccc2)NC(=O)[C@@H](N)CSSC[C@@H](C(=O)N2CCC[C@H]2C(=O)N2CCC[C@H]2C(=O)NCC(N)=O)NC(=O)[C@H](CC(N)=O)NC1=O
Turning to B1, the “EC50 of receptor activation (intracellular calcium increase, calcium dye fluorescence imaging, RBL cells)” value in assay [1] was 214 nM. Also, in assay [2], the “IC50 of receptor inhibition (calcium response to 30 nM oxytocin, calcium dye fluorescence imaging, ECV304 cells)” value was 16000 nM.

B2: Squidtocin (peptide)
peptide: CYFRNCPAG-NH2
modifications: disulfide 1-6; N-terminus assumed
SMILES: C[C@H](NC(=O)[C@@H]1CCCN1C(=O)[C@@H]1CSSC[C@H](N)C(=O)N[C@@H](Cc2ccc(O)cc2)C(=O)N[C@@H](Cc2ccccc2)C(=O)N[C@@H](CCCNC(=N)N)C(=O)N[C@@H](CC(N)=O)C(=O)N1)C(=O)NCC(N)=O
With B2, the “EC50 of receptor activation (intracellular calcium increase, calcium dye fluorescence imaging, RBL cells)” value in assay [1] stood at 0.94 nM. Moreover, the “EC50 of receptor activation (intracellular cAMP accumulation, HTRF, CHO cells)” value in assay [3] was 42 nM.
